Experimental findings from the supplement of paper PMC5998384 are described below.

Data set [1] concerns HeLa Kyoto. The data set is described as follows: solubility in G1/S (NP-40 vs SDS abundance) (log2 ratio); higher = more soluble. The settings on record: cell cycle stage: G1/S.
The test system of data set [2] is HeLa Kyoto. The data set is described as follows: melting temperature (median over replicates), in situ; higher = more thermally stable.
Data set [3] deals with HeLa Kyoto. In words: solubility change mitosis vs G1/S (difference of NP-40 vs SDS log2 ratios) (log2 ratio difference); higher = more soluble in mitosis.
Data set [4] has as its system HeLa Kyoto. In words: thermal stability score vs G1/S (z-score of summed log2 fold changes over temperatures); higher = more thermally stable than in G1/S.
[5] abbreviates: cell cycle stage: early G1 (4.5 h after nocodazole release).
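Throughout, for melting temperature (median over replicates), in situ: HeLa Kyoto cells synchronized by double thymidine or nocodazole block, proteins quantified by TMT10plex mass spectrometry, three independent biological replicates.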
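Throughout, for solubility change mitosis vs G1/S (difference of NP-40 vs SDS log2 ratios): synchronized HeLa Kyoto cells (double thymidine block for G1/S, nocodazole release for mitosis), protein amounts in NP-40 versus SDS lysates quantified by mass spectrometry, three biological replicates.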
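Throughout, for solubility in G1/S (NP-40 vs SDS abundance): HeLa Kyoto cells arrested at G1/S by double thymidine block, proteins quantified by TMT10plex mass spectrometry in mild NP-40 versus SDS extracts, three biological replicates.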
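Throughout, for thermal stability score vs G1/S (z-score of summed log2 fold changes over temperatures): synchronized HeLa Kyoto cells, proteins quantified by TMT10plex mass spectrometry, three biological replicates, mitosis taken 0.5 h after nocodazole release, G1/S directly after double thymidine block.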

As for “MATPGNLGSSVLASKTKTKKKHFVAQKVKLFRASDPLLSVLMWGVNHSINELSHVQIPVMLMPDDFKAYSKIKVDNHLFNKENMPSHFKFKEYCPMVFRNLRERFGIDDQDFQNSLTRSAPLPNDSQARSGARFHTSYDKRYIIKTITSEDVAEMHNILKKYHQYIVECHGITLLPQFLGMYRLNVDGVEIYVIVTRNVFSHRLSVYRKYDLKGSTVAREASDKEKAKELPTLKDNDFINEGQKIYIDDNNKKVFLEKLKKDVEFLAQLKLMDYSLLVGIHDVERAEQEEVECEENDGEEEGESDGTHPVGTPPDSPGNTLNSSPPLAPGEFDPNIDVYGIKCHENSPRKEVYFMAIIDILTHYDAKKKAAHAAKTVKHGAGAEISTVNPEQYSKRFLDFIGHILT [PIP4K2A]”, the “solubility in G1/S (log2)” value in the data set on HeLa Kyoto [1] was 0.309. Further, the melting temperature with HeLa Kyoto [2] (cell cycle stage: G1/S) was found to be 49.8 °C; in the data set with HeLa Kyoto [2] (cell cycle stage: mitosis) it was 49.4 °C. Further, the “solubility change mitosis (log2)” value with HeLa Kyoto [3] is -0.142. The thermal stability score came to 2.24 with HeLa Kyoto [4] (setting [5]) and 1.11 with HeLa Kyoto [4] (cell cycle stage: mitosis).

Turning to “MATPSKKTSTPSPQPSKRALPRDPSSEVPSKRKNSAPQLPLLQSSGPFVEGSIVRISMENFLTYDICEVSPGPHLNMIVGANGTGKSSIVCAICLGLAGKPAFMGRADKVGFFVKRGCSRGMVEIELFRASGNLVITREIDVAKNQSFWFINKKSTTQKIVEEKVAALNIQVGNLCQFLPQDKVGEFAKLSKIELLEATEKSIGPPEMHKYHCELKNLREKEKQLETSCKEKTEYLQKMVQRNERYKQDVERFYERKRHLDLIEMLEAKRPWVEYENVRQEYEEVKLVRDRVKEEVRKLKEGQIPVTCRIEEMENERHNLEARIKEKATDIKEASQKCKQKQDVIERKDKHIEELQQALIVKQNEELDRQRRIGNTRKMIEDLQNELKTTENCENLQPQIDAITNDLRRIQDEKALCEGEIIDKRRERETLEKEKKSVDDHIVRFDNLMNQKEDKLRQRFRDTYDAVLWLRNNRDKFKQRVCEPIMLTINMKDNKNAKYIENHIPSNDLRAFVFESQEDMEVFLKEVRDNKKLRVNAVIAPKSSYADKAPSRSLNELKQYGFFSYLRELFDAPDPVMSYLCCQYHIHEVPVGTEKTRERIERVIQETRLKQIYTAEEKYVVKTSFYSNKVISSNTSLKVAQFLTVTVDLEQRRHLEEQLKEIHRKLQAVDSGLIALRETSKHLEHKDNELRQKKKELLERKTKKRQLEQKISSKLGSLKLMEQDTCNLEEEERKASTKIKEINVQKAKLVTELTNLIKICTSLHIQKVDLILQNTTVISEKNKLESDYMAASSQLRLTEQHFIELDENRQRLLQKCKELMKRARQVCNLGAEQTLPQEYQTQVPTIPNGHNSSLPMVFQDLPNTLDEIDALLTEERSRASCFTGLNPTIVQEYTKREEEIEQLTEELKGKKVELDQYRENISQVKERWLNPLKELVEKINEKFSNFFSSMQCAGEVDLHTENEEDYDKYGIRIRVKFRSSTQLHELTPHHQSGGERSVSTMLYLMALQELNRCPFRVVDEINQGMDPINERRVFEMVVNTACKENTSQYFFITPKLLQNLPYSEKMTVLFVYNGPHMLEPNTWNLKAFQRRRRRITFTQPS [SMC5]”, in the data set on HeLa Kyoto [1], the “solubility in G1/S (log2)” value is -0.139. Also, the melting temperature with HeLa Kyoto [2] (cell cycle stage: G1/S) came out at 50.6 °C; with HeLa Kyoto [2] (cell cycle stage: mitosis), 50.7 °C. For the same sequence, in the data set on HeLa Kyoto [3], the “solubility change mitosis (log2)” value is -0.0502. In addition, the results for the thermal stability score with HeLa Kyoto [4] (setting [5]) and in the data set with HeLa Kyoto [4] (cell cycle stage: mitosis) were 0.153 and 0.876, respectively.

Take “MATQADLMELDMAMEPDRKAAVSHWQQQSYLDSGIHSGATTTAPSLSGKGNPEEEDVDTSQVLYEWEQGFSQSFTQEQVADIDGQYAMTRAQRVRAAMFPETLDEGMQIPSTQFDAAHPTNVQRLAEPSQMLKHAVVNLINYQDDAELATRAIPELTKLLNDEDQVVVNKAAVMVHQLSKKEASRHAIMRSPQMVSAIVRTMQNTNDVETARCTAGTLHNLSHHREGLLAIFKSGGIPALVKMLGSPVDSVLFYAITTLHNLLLHQEGAKMAVRLAGGLQKMVALLNKTNVKFLAITTDCLQILAYGNQESKLIILASGGPQALVNIMRTYTYEKLLWTTSRVLKVLSVCSSNKPAIVEAGGMQALGLHLTDPSQRLVQNCLWTLRNLSDAATKQEGMEGLLGTLVQLLGSDDINVVTCAAGILSNLTCNNYKNKMMVCQVGGIEALVRTVLRAGDREDITEPAICALRHLTSRHQEAEMAQNAVRLHYGLPVVVKLLHPPSHWPLIKATVGLIRNLALCPANHAPLREQGAIPRLVQLLVRAHQDTQRRTSMGGTQQQFVEGVRMEEIVEGCTGALHILARDVHNRIVIRGLNTIPLFVQLLYSPIENIQRVAAGVLCELAQDKEAAEAIEAEGATAPLTELLHSRNEGVATYAAAVLFRMSEDKPQDYKKRLSVELTSSLFRTEPMAWNETADLGLDIGAQGEPLGYRQDDPSYRSFHSGGYGQDALGMDPMMEHEMGGHHPGADYPVDGLPDLGHAQDLMDGLPPGDSNQLAWFDTDL [CTNNB1]”: the “solubility in G1/S (log2)” value in the data set on HeLa Kyoto [1] came to 0.0555. Further, the figures for the melting temperature in the data set with HeLa Kyoto [2] (cell cycle stage: G1/S) and with HeLa Kyoto [2] (cell cycle stage: mitosis) were 53.4 °C and 52.4 °C, respectively. Also, in the data set on HeLa Kyoto [3], the “solubility change mitosis (log2)” value was -0.093. Also, the results for the thermal stability score with HeLa Kyoto [4] (setting [5]) and in the data set with HeLa Kyoto [4] (cell cycle stage: mitosis) were 0.0437 and 0.0622, respectively.

“MATQAYTELQAAPPPSQPPQAPPQAQPQPPPPPPPAAPQPPQPPTAAATPQPQYVTELQSPQPQAQPPGGQKQYVTELPAVPAPSQPTGAPTPSPAPQQYIVVTVSEGAMRASETVSEASPGSTASQTGVPTQVVQQVQGTQQRLLVQTSVQAKPGHVSPLQLTNIQVPQQALPTQRLVVQSAAPGSKGGQVSLTVHGTQQVHSPPEQSPVQANSSSSKTAGAPTGTVPQQLQVHGVQQSVPVTQERSVVQATPQAPKPGPVQPLTVQGLQPVHVAQEVQQLQQVPVPHVYSSQVQYVEGGDASYTASAIRSSTYSYPETPLYTQTASTSYYEAAGTATQVSTPATSQAVASSGSMPMYVSGSQVVASSTSTGAGASNSSGGGGSGGGGGGGGGGGGGGSGSTGGGGSGAGTYVIQGGYMLGSASQSYSHTTRASPATVQWLLDNYETAEGVSLPRSTLYCHYLLHCQEQKLEPVNAASFGKLIRSVFMGLRTRRLGTRGNSKYHYYGLRIKASSPLLRLMEDQQHMAMRGQPFSQKQRLKPIQKMEGMTNGVAVGQQPSTGLSDISAQVQQYQQFLDASRSLPDFTELDLQGKVLPEGVGPGDIKAFQVLYREHCEAIVDVMVNLQFTLVETLWKTFWRYNLSQPSEAPPLAVHDEAEKRLPKAILVLLSKFEPVLQWTKHCDNVLYQGLVEILIPDVLRPIPSALTQAIRNFAKSLESWLTHAMVNIPEEMLRVKVAAAGAFAQTLRRYTSLNHLAQAARAVLQNTAQINQMLSDLNRVDFANVQEQASWVCRCEDRVVQRLEQDFKVTLQQQNSLEQWAAWLDGVVSQVLKPYQGSAGFPKAAKLFLLKWSFYSSMVIRDLTLRSAASFGSFHLIRLLYDEYMYYLIEHRVAQAKGETPIAVMGEFANLATSLNPLDPDKDEEEEEEEESEDELPQDISLAAGGESPALGPETLEPPAKLARTDARGLFVQALPSS [RFX1]”: in the data set on HeLa Kyoto [1], the “solubility in G1/S (log2)” value is -0.00333. Further, the figures for the melting temperature in the data set with HeLa Kyoto [2] (cell cycle stage: G1/S) and with HeLa Kyoto [2] (cell cycle stage: mitosis) were 53.3 °C and 53 °C, respectively. For the same sequence, the “solubility change mitosis (log2)” value in the data set with HeLa Kyoto [3] was -0.21. The results for the thermal stability score in the data set on HeLa Kyoto [4] (setting [5]) and in the data set on HeLa Kyoto [4] (cell cycle stage: mitosis) were -1.2 and -2.15, respectively.
